Measurements reported in publication PMC6848426 (Rice, 2019).

Target: T1, GST-OsSGT1 (rice (Oryza sativa L.), UniProt Q0JL44 1-367)
T1 sequence (looked up): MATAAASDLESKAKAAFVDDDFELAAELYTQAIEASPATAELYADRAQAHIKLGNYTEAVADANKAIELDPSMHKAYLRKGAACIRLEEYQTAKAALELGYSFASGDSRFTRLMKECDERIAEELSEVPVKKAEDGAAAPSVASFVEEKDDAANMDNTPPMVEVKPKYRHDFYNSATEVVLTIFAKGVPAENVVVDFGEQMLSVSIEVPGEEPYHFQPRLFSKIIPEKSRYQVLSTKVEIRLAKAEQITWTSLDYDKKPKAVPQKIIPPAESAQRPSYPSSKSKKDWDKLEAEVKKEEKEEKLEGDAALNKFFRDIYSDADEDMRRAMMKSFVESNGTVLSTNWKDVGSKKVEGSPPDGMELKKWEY
Assay: pull-down; GST-, GST-fusion-coupled beads used to capture the His tag or His-OsSAPK9; detection with HRP-conjugated anti-His antibody
Settings: both partners purified

B1: His-OsSAPK9 (natural protein, rice (Oryza sativa L.), UniProt Q75V57 1-361, looked up)
chain: MERAAAGPLGMEMPIMHDGDRYELVKEIGSGNFGVARLMRNRASGDLVAVKYIDRGEKIDENVQREIINHRSLRHPNIIRFKEVILTPTHLAIVMEYASGGELFERICSAGRFSEDEARFFFQQLISGVSYCHSMQVCHRDLKLENTLLDGSTAPRLKICDFGYSKSSVLHSQPKSTVGTPAYIAPEVLLKKEYDGKIADVWSCGVTLYVMLVGAYPFEDPEDPKNFRKTIQKILGVQYSIPDYVHISPECRDLITRIFVGNPASRITMPEIKNHPWFMKNIPADLMDDGMVSNQYEEPDQPMQNMNEIMQILAEATIPAAGTSGINQFLTDSLDLDDDMEDMDSDLDLDIESSGEIVYAM
notes: also called histidine-tagged OsSAPK9 protein
Does B1 bind?
Result: binds
